From patent publication US20230068663A1 (University of Texas, published 2023)

Key:
LILRB2-His antigen [1] = biological target: T1, LILRB2-His antigen (UniProt Q8N423 22-460, limits assumed); experiment: ELISA titration on LILRB2 and LILRA1 antigens
T1 construct: Coated on ELISA plates; also used for phage panning; also called LILRB2 antigen; not shown: His tag

LILRB2-His antigen [2] = biological target: T1, LILRB2-His antigen; experiment: indirect ELISA, coated LILRB2-His
Protocol: ELISA binding EC of LILRB2 antibodies. The ELISA binding EC₅₀ of these 24 antibodies were measured by indirect ELISA. […] After incubation, HRP-conjugated goat anti-human Fc secondary antibody was incubated with the plates. The TMB substrate was added for color development and measurement of absorbance at 450 nm.

LILRA5 = biological target: T2, LILRA5; experiment: flow cytometry, reporter cells [cont'd]
T2 construct: also called LILRA5 reporter cells
T2 sequence (chain, as listed by the source limits assumed): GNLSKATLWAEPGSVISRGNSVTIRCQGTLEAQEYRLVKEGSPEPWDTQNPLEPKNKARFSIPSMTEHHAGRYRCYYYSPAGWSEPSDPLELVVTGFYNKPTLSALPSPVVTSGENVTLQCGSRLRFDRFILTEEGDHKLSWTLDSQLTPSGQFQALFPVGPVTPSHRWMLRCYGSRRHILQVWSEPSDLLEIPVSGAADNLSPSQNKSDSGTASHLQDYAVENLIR

LILRA6 = biological target: T3, LILRA6; experiment: flow cytometry, reporter cells [cont'd]
T3 construct: also called LILRA6 reporter cells
T3 sequence (chain, as listed by the source limits assumed): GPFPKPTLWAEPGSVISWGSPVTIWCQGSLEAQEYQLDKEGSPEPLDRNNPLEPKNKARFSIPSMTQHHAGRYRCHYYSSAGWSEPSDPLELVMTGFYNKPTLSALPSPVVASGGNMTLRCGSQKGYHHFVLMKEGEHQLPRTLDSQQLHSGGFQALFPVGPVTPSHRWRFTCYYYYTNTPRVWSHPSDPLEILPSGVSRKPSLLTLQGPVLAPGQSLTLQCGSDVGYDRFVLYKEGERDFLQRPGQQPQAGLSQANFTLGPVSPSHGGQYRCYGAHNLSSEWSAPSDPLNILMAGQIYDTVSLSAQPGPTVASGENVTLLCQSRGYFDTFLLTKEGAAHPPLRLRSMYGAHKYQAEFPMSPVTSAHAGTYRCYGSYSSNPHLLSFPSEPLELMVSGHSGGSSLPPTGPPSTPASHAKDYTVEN

LAIR1 on reporter cells [3] = biological target: T4, LAIR1 on reporter cells (UniProt Q6GTX8 22-165, limits assumed); experiment: flow cytometry, reporter cells [cont'd]
T4 sequence (looked up): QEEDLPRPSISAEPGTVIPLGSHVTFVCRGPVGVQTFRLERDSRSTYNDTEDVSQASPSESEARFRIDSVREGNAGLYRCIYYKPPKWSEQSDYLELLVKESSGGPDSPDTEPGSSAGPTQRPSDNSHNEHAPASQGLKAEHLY

[4] = biological target: T5, LILRB2 chimeric receptor on LILRB2 reporter cells (extracellular domain of LILRB2 fused with … (UniProt Q8N423 22-460)); experiment: flow cytometry, LILRB2 reporter cells
T5 construct: extracellular domain;domain: transmembrane/intracellular domains; associates with DAP12; also called LILRB2-expressing reporter cells
Source text: (§1) FIGS. 1A-C. Screening specific monoclonal antibodies for LILRB2. […] Binding of monoclonal antibodies was screened using flow cytometer on LILRB2 reporter cells. Bound antibodies were detected with Allophycocyanin (APC)-labeled goat anti-human IgG secondary antibody. (FIG. 1B) Quantification of binding ability of monoclonal antibodies to LILRB2 reporter cells.
(§2) Screening specific monoclonal antibodies for LILRB2. The inventors employed a stable reporter cell system to detect the binding ability of selected monoclonal antibodies to LILRB2. In this chimeric receptor reporter system, the extracellular domain (ECD) of LILRB2 is fused with transmembrane/intracellular domains of PILRb that associates with the adaptor protein DAP12 containing an immunoreceptor tyrosine-based activation motif. 27 monoclonal antibodies were screened. The LILRB2 reporter cells were incubated with selected monoclonal antibody, then labeled with (APC) goat anti-human IgG secondary antibody. […] The inventors generated LILRBAs and LILRBs reporters stably transduced with each receptor's extracellular domain (ECD).

LAIR1 on reporter cells [5] = biological target: T4, LAIR1 on reporter cells; experiment: flow cytometry, reporter cells
[6] = biological target: T6, full extracellular domain (ECD) of LILRB2 fused to Fc fragment of mouse IgG2a (human; mouse, UniProt Q8N423 22-460); experiment: ELISA, coated human LILRB2 ECD-mIgG2a Fc [panel A]
T6 construct: extracellular domain; also called B2-ECD; wildtype B2-ECD; not shown: Fc fragment of mouse IgG2a
Source text: FIGS. 19A-B. ELISA binding measurement of antibodies to human and non-human primate (cynomolgus monkey, cyno) LILRB2 recombinantly produced in HEK293 cells. (FIG. 19A) ELISA binding to human LILRB2. (FIG. 19B) ELISA binding to cyno-LILRB2. The fusion proteins of the extracellular domain (ECD) of human LILRB2 or NHP-LILRB2 with Fe of mouse IgG2a were used to coat ELISA plates and antibodies were titrated in different concentrations as indicated in the graph.

LAIR1 on reporter cells [7] = biological target: T4, LAIR1 on reporter cells; experiment: flow cytometry, reporter cells; remark: listed apart in the source
Protocol: Binding of LILRB2 monoclonal antibodies was detected using flow cytometry on LILRAs, LILRBs or LAIR1-expressing reporter cells using a Allophycocyanin (APC)-labeled goat anti-human IgG Fc specific secondary antibody. Non: non-stained reporter cells. NEG: cells incubated only with secondary Ab. POS: cells incubated with commercial antibody conjugated with APC or AF647 for the respective LIL or LAIR-1 receptors. The number indicates mean fluorescence intensity (MFI) of APC or AF647.

[8] = biological target: T7, LILRB2 (antigen in solution, Octet RED 96) (UniProt Q8N423 22-460, limits assumed); experiment: BLI (Octet RED 96), antibody on protein A biosensor, LILRB2 in solution
T7 construct: also called LILRB2 solution
Protocol: Affinity measurement of blocking antibodies. Affinities of the 5 blocking antibodies were measured on Octet RED 96 system.

[9] = biological target: T5, LILRB2 chimeric receptor on LILRB2 …; experiment: flow cytometry on LILRB2 reporter cells, APC anti-human IgG
Source text: as §1, §2

B1: B2-12 (antibody, V domains shown)
VH: QVQLVQSGDEVKKAGASVRVSCKASGYTFPDNGISWVRQAPGHGLEWMGWINVDTGYTHYAQRVQDRVVMTTDTSTNTLHMTLRSLTTDDTAVYYCAREIEGVWTAWGQGTLVIVSS
VL: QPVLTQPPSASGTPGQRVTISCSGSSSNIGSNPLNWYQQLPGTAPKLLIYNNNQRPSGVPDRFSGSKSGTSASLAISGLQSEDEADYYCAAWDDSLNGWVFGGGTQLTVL
notes: also called B2-12_HC; B2-12_LC
With B1 the “fold potency of binding to LILRB2 against binding to LILRA1” value (from here on “fold potency of binding to LILRB2”) (LILRB2-His antigen [1]) was greater than 100 fold, the EC50 (LILRB2-His antigen [2]) was 0.444 nM and the binding result (LILRA5) was “no binding”. The binding result (LILRA6) was “no binding”, the binding result (LAIR1 on reporter cells [3]) was “no binding” and the “% of cells anti-hIgG APC+” value [4] was 25.5%.

B2: B2-8 (antibody, V domains shown)
VH: QVQLVQSGAEVKKPGSSVKVSCKASGGTFSSYAISWVRQAPGQGLEWMGGIIPIFGTANYAQKFQGRVTITADESTSTAYMELSSLRSEDTAVYYCARVAVADTFFDYWGQGTLVTVSS
VL: QPVLTQPASVSGSPGQSITISCTGTSSDVGGYNYVSWYQQHPGKAPKLMIYDVSNRPSGVSNRFSGSKSGNTASLTISGLQAEDEADYYCSSYTSSSTPYVFGTGTKVTVL
notes: also called B2-8_HC; B2-8_LC
B2 was tested, and the binding result (LAIR1 on reporter cells [5]) was “no binding”, the EC50 (LILRB2-His antigen [2]) was 0.557 nM and the “% of cells anti-hIgG APC+” value [4] was 24.8%.

B3: B2-10 (antibody, V domains shown)
VH: QVQLVQSGGGLVQPGGSLRLSCAASGFTFSSYAMSWVRQAPGKGLEWVSTINDSGGSTYYADSVKGRFTISRDNSKNTLYLQMNSLRAEDTAVYYCAKDHITIFGVAPFDYWGLGTLVTVSS
VL: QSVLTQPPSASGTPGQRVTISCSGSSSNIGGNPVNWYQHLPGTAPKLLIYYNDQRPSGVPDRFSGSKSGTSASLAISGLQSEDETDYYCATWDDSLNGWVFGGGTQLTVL
notes: also called B2-10_HC; B2-10_LC
For B3, the “fold potency of binding to LILRB2” value (LILRB2-His antigen [1]) was greater than 100 fold, the EC50 (LILRB2-His antigen [2]) was 0.575 nM and the “% of cells anti-hIgG APC+” value [4] was 35.1%.

B4: HCB2-15 (antibody, V domains shown)
VH: QVQMVESGGDLVQPGQSLRLSCVTSGFPFADYAMSWFRQAPGQRPEWIGYIKSKTRDGTTKYAESLRGRFTISRDDSKSIAYLQMNNLKREDTAVYYCALGGAAALWGPGTLVSVSS
VL: QPPSVSGAPGQRVTISCAGSSSNIGAGYGVHWYQHLPGTAPKLLIYGDNNRPSGVPYRFSGSKSGTSASLAITGLQAEDEADYFCQSYDSSLGVGVFGGGTKVTVL
notes: also called HCB2-15_HC; HCB2-15_LC
B4: binds [6].

B5: B2-25 (antibody, V domains shown)
VH: QVQLVESGGGLVKPGGSLRLSCAASGFTFSDHYMSWIRQAPGKGLEWVSYITTTGSTMSYADSVKGRFTISRDNSKNSLHLQLSSLRAEDTAVYYCARDSIHVDGAFDIWGQGTMVTVSS
VL: SYELTQPPSVSVAPGQTARITCGGNNIGSKSVHWYQQKPGQAPVLVVYDDSDRPSGIPERFSGSNSGNTATLTISRVEAGDEADYYCQVWDSSSDHWVFGGGTKLTVL
notes: also called B2-25_HC; B2-25_LC
B5 was tested, and the EC50 (LILRB2-His antigen [2]) was 1.73 nM, the binding result (LAIR1 on reporter cells [3]) was “no binding” and the “% of cells anti-hIgG APC+” value [4] was 39.2%.

B6: HCB2-24 (antibody, V domains shown)
VH: QMQLEQSGAEVKKPGSSVKVSCKASGGTFSSYAISWVRQAPGQGLEWMGGIIPIFGTANYAQKFQGRVTITADKSTSTAYMELSSLRSEDTAVYYCARAGGIHYYDSLDYWGQGTLVTVSS
VL: not shown
notes: also called HCB2-24_HC; HCB2-24_LC
B6: binds [6].

B7: B2-24 (antibody, V domains shown)
VH: QVQLVESGGGLVKPGGSLRLSCAASGFTFSDYYMSWIRQAPGKGLEWVSYISSSSSYTNYADSVKGRFTISRDNAKNSLYLQMNSLRAEDTAVYYCARVGDLDAFDIWGQGTMVTVSS
VL: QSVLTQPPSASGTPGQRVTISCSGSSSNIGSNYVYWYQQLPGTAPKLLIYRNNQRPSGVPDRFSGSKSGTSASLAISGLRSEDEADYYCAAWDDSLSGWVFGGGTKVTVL
notes: also called B2-24_HC; B2-24_LC
B7 was tested, and the binding result (LAIR1 on reporter cells [5]) was “no binding”, the EC50 (LILRB2-His antigen [2]) was 5.06 nM and the “% of cells anti-hIgG APC+” value [4] was 13%.

B8: HCB2-10 (antibody, V domains shown)
VH: QVQLVESGGGLVQPGGSLRLSCAASGFTFSNYAMSWVRQAPGKGLEWVSAISGSSISTYYADSVKGRFTISRDNSKNTLYLQMNSLRAEDTAVYYCASSGFGSFDYWGQGTLVTVSS
VL: QPPSVSAAPRQRVTISCSGSSSNIGDNSVNWYQQLPGKAPKLLIYLDDLLPSGVSGRFSGSKSGTSASLVISGLQSEDEADYYCATWDDSLNGVVFGGGTKVTVL
notes: also called HCB2-10_HC; HCB2-10_LC
B8 was tested, and the binding result (LAIR1 on reporter cells [7]) was “no binding”, the Kd [8] was 8.67 nM and the koff [8] was 0.0061 s⁻¹. For the same binder, the kon [8] was 703000 M⁻¹ s⁻¹.

B9: HCB2-27 (antibody, V domains shown)
VH: QVQLVESGGGLVKPGGSLRLSCAASGFTFANAWMGWVRQAPGKGLQWVSHIKPSSSGGRTTDYDAPVKGRFTISRDDSNDTVYLQMNSLKTEDTGVYYCVTGRRVAKTFDFWGQGTTVSVSS
VL: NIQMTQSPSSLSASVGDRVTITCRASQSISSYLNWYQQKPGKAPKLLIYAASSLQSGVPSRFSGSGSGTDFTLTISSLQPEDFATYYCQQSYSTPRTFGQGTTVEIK
notes: also called HCB2-27_HC; HCB2-27_LC
B9: binds [6].

B10: B2-18 (antibody, V domains shown)
VH: QVQLVQSGAEVKKPGASVKVSCKASGYTFTRYGFSWVRQAPGQGLEWMGWISGYNGNTKYAQKFQGRVTMTTDTSTSTAYMELRSLTSNDTAVYYCARDRGSGYLEYWGPGTLVTVSS
VL: DVQMTQSPSSLSASVGERVTLTCRASQGIYSSLAWYQQKPGKAPKLLLYGTSQLERGVPSRFSGSGSGTDYTLTISSLQPEDSATYYCQQHYNLPITFGQGTRLEIK
notes: also called B2-18_HC; B2-18_LC
With B10 the “fold potency of binding to LILRB2” value (LILRB2-His antigen [1]) was greater than 100 fold, the EC50 (LILRB2-His antigen [2]) was 0.355 nM and the binding result (LILRA5) was “no binding”. For the same binder, the binding result (LILRA6) was “no binding”, the binding result (LAIR1 on reporter cells [3]) was “no binding” and the “% of cells anti-hIgG APC+” value [4] was 75.6%. The “percent of LILRB2 reporter cells labeled” value [9] was greater than 95%.

B11: HCB2-17 (antibody, V domains shown)
VH: QVQLVQSGAEVKKPGSSVKVSCKASGGTFSSYAISWVRQAPGQGLEWMGGIIPIFGTANYAQKFQGRVTITADESTSTAYMELSSLRSEDTAVYYCAISSGYYYNPFDYWGQGTLVTVSS
VL: not shown
notes: also called HCB2-17_HC; HCB2-17_LC
B11: binds [6].

B12: HCB2-5 (antibody, V domains shown)
VH: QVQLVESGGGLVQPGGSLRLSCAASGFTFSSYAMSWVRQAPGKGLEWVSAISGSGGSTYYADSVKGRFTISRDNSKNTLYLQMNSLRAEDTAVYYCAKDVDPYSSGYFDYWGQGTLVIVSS
VL: AIQMTQSPSSVSASVGDRVTITCRASQGIGSWLAWYQQKPGKAPKLLISVASSLQSGVPSRFSGSGSGTDFTLTISSLQPEDFATYYCQQANSFPLTFGGGTTVEIK
notes: also called FCB2-5; HCB2-5_HC
In the case of B12, the binding result (LAIR1 on reporter cells [7]) is reported as “no binding”, the Kd [8] is reported as 10.2 nM and the koff [8] is reported as 0.00324 s⁻¹. For the same binder, the kon [8] was 317000 M⁻¹ s⁻¹.

B13: HCB2-18 (antibody, V domains shown)
VH: QVQLVQSGAEVKKPGSSVKVSCKASGGTFSSYAISWVRQAPGQGLEWMGGIIPIFGTANYAQKFQGRVTITADESTSTAYMELSSLRSEDTAVYYCARGGYQPLDYWGQGTLVIVSS
VL: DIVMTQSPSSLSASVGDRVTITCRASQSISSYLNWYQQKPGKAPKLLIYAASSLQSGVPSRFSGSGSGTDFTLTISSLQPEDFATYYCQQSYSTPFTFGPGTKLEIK
notes: also called HCB2-18_HC; HCB2-18_LC
B13: binds [6].
